{"source": "the DeepSol protein solubility set"}
{"assay": "soluble on expression in E. coli; label from the status in PepcDB or PDB records"}
{"sequence": "MRKVTVSLIKADVGSVAGHTTVPDELKKAAEENLKNAVDSGLIIDFRVFNAGDDLELLMTHDKGVDSEEIHRLAWETFEKAAGIAKELKLYGAGQDLLKDAFSGNVRGLGPGVAEMEFTERKAEPVIAFMMDKTEPGAFNMPIFRMFADPFNTAGLVIDPTMHQGFVFEIWDIKESKRVFMRTPEEMYDILALIGGKSRFVIKRVYPKEGGKLPADEPVAVISTEKLYEVAGEYVGKDDPVALVRAQSGLPAVGEVLEPFAFPHLVSGWMRGSHNGPIMPVPFKYSKCTRFDGPPRCIAAGFQLANGKIIGPVDMFDDPAFDYTRQKAMEIAEYMRRHGPFEPHRLPSEDMEYTTLPKVLEKLKGRFEEV", "soluble on expression in E. coli": "not soluble"}
{"sequence": "MRLALFDLDNTLLGGDSDHAWGDYLYQRGILDAATYKSRNDEFYQDYLAGTLNMTDYLNFTLEILGNTDMAQLQEWHREFMRDCIEPIMLPKALELIAKHREAGDKLVVITATNRFVTAPIVARLGIETLLATECEMVDGRYTGRTTGVPCFREGKVTRLNQWLEDNAFSLEDSYFYSDSMNDLPLLEQVANPVAVDPDARLRAEAEQRGWPVITLRS", "soluble on expression in E. coli": "not soluble"}
{"sequence": "MRLERTFDPNDLSTQNMESPICLPIGFVHFLAQSQTLQQVLDTVAEWINRIFESDRTSITLYENSDYLKVYSFSGNKAIPADFLVPIDQAFVGRVFKNQQLIICDDVSQSDELDCVMLTSSGMGTCMDAPLMHGQMCLGTLNVAHHQTHFYTKEQAAQLQCIANWIALNI", "soluble on expression in E. coli": "not soluble"}
{"sequence": "MRLFFSLLILLSFFARATEPVQVFTDDLGRKVTVPAHPKRIVSLHDLDITIPLIELGVPPVASHGRTRPDGSHFIRSGALLTGVDFDNSSIAFIGTADIDIEAIVAAKPDLIITEPTRNTPIERLEKIAPTVSIDHLKGGAPEIYRKLAELTGTQSQLAILERRYQAQINALKATLDSQKITVSVIQANQGKINVMHSYHSLGRVLRDAGFRFPPLIESIPEGGRMDVSAERLPELDADFVFATWRGDTGGKPQDELAAMEKVMPGWCQFLTACRSGRYVLISREEAISNSFASLGLMAAQIQSQIAGRPLPEAK", "soluble on expression in E. coli": "soluble"}
{"sequence": "MRLKKLPIRRKMPMELAYIEKLFREEVGLDIKEHKDKAEQISETVVEIYEELLRKGIENANYNGRDYVSYYDLPITEDLERYMNRFIQDRGEEVLKAFVDYLAKLEEELLKAEEALPPLDEELHQKKADILGGIMLMFASVAKQINGDRKLYAESIPVTREVLRTMI", "soluble on expression in E. coli": "not soluble"}
{"sequence": "MRLLIITGISGAGKSLVVKYLEDIGFFCVDNLPPLLIGKFAEICLKSRGKISKVALVIDIRGGELFNDLVPELNALKESGIDYEILFLEASDQVLIKRYKESRRIHPLAPEGRLIKGIKTEREILSQIRKNATYIIDTSNLTPRQLKEEILAIFVEGRKFDGMIVNIISFGFKYGIPIECDLVFDVRFIPNPYYIESMKYKTGKDEEVRNYVMSFAETAEFMTKLKDLVDFLIPNYIKEGKSQLVIGVGCTGGRHRSVAISEALFSYLCGREHRVFIDHRDIDKDGRSNRR", "soluble on expression in E. coli": "soluble"}
{"sequence": "MRLNFAYPATGLQKSFEVDEEKKLRLFFEKRMSQEVAIDALGDEWKGYVVRIGGGNDKQGFPMKQGILTNGRVRLLLKKGQSCYRERKNGERKRKSVRGCIVDANMSALSLVIVKKGDGEIEGLTDSVLPRKLGPKRASKIRKLFNLTKHDDVTKYVITHDKTFPDGVTKTIAPKIQRLITPARIARKKYLLRQKRNQKIKMRDDAAAYHKLLAKYSKEEHDAKIARRRSSASHHSESEVKKTSKK", "soluble on expression in E. coli": "not soluble"}
{"sequence": "MRPEERRRHILELLRQRERISVDELARTLSTSQETIRRDLAALAEQGLVSKFHGGAALPPSGEHENAFQTRMNEHAQEKRAVARYAAGLFGPGDSIFIDTGTTTLLFARELARQSHLTVITNSLLIAGSVGASGNRAFMIGGEYRPESEQNVGALAIEQIARFNAEHAVITVGALNGDGAMDFSIEEAEIARAMIAQARQLTVIADSSKLGRRALFQVFPLSRINRLVVDRKPTGELWEALQQARVEVHEAPLRTPQALEHHHHHH", "soluble on expression in E. coli": "not soluble"}
{"sequence": "MRPMGHAESVMSRFAHRVKSRRSWKDQGLRAFLKAMVARIDGIRWRKGPLEAEEPQSAVSASTKSKRIEQAKRKAGRLWADVVRQNLPCLQQSSGTPIHQALSALRDGGWV", "soluble on expression in E. coli": "not soluble"}
{"sequence": "MRPRRSLLSVPAINIRALEKIRELDCDGVILDLEDSVAPDMKGKARENLEKLFSGPPFDGRETIIRINPLSTPDGKADLQLVLSCRPDAVLLPKVEQPSDIHDVADFLAEADAPEHLKIWAMIETPLGVLNAASIADAAHTPNARLAAFVIGLNDLRKETHVPRLPGRTYLVPWMMQVILAARAYGLDVIDSVSNDFRDIEAFEAECEQGRAMGFDGKMLIHPAQIEAANRHFGPDEATLAEARAIIAAFAKPESVELNIINMNGQMIERLHVGQAERLVAMADIIAQRKAKKT", "soluble on expression in E. coli": "not soluble"}
{"sequence": "MRPSAPAISRQTLLDEPRPGSLTIGYEPSEEAQPTENPPRFSWLPDIDDGARYVLRISTDPGFTDKKTLVFEDLAWNFFTPDEALPDGHYHWCYALWDQKSATAHSNWSTVRSFEISEALPKTPLPGRSARHAAAQTSHPRLWLNSEQLSAFADAVAKDPNHCGWAEFYEKSVEPWLERPVMPEPQPYPNNTRVATLWRQMYIDCQEVIYAIRHLAIAGRVLGRDDLLDASRKWLLAVAAWDTKGATSRAYNDEAGFRVVVALAWGYDWLYDHLSEDERRTVRSVLLERTREVADHVIAHARIHVFPYDSHAVRSLSAVLTPACIALQGESDEAGEWLDYTVEFLATLYSPWAGTDGGWAEGPHYWMTGMAYLIEAANLIRSYIGYDLYQRPFFQNTGRFPLYTKAPGTRRANFGDDSTLGDLPGLKLGYNVRQFAGVTGNGHYQWYFDHIKADATGTEMAFYNYGWWDLNFDDLVYRHDYPQVEAVSPADLPALAVFDDIGWATIQKDMEDPDRHLQFVFKSSPYGSLSHSHGDQNAFVLYAHGEDLAIQSGYYVAFNSQMHLNWRRQTRSKNAVLIGGKGQYAEKDKALARRAAGRIVSVEEQPGHVRIVGDATAAYQVANPLVQKVLRETHFVNDSYFVIVDEVECSEPQELQWLCHTLGAPQTGRSSFRYNGRKAGFYGQFVYSSGGTPQISAVEGFPDIDPKEFEGLDIHHHVCATVPAATRHRLVTLLVPYSLKEPKRIFSFIDDQGFSTDIYFSDVDDERFKLSLPKQF", "soluble on expression in E. coli": "soluble"}
{"sequence": "MRPSSRSAGRRTSMRLTTRDFDRTGRPLRFTELGFGSSPLGNLYRAISEEEAQALLERAWAGGIRYFDTAPLYGYGLAEERLGRFLAGHPRSDYVLSTKVGRLLRPVEPGEARDGLGKFFEVPERKERFDYGYDGVMRSLEASLDRLGLDRVDVLYAHDLDLFTHGSQEALEARLAEFMAGGYRALVELRDQGVISAFGAGVNEWQPCQWLAERGEFDLFLLAGRYTLLEQEALESFLPLAEERGIGIVIGGPYNSGVLATGPKPGSFYDYRLAPQAVLDRVAQIHTICERWGVRMFEAAFQFPLRHPAVLSVIPGPQSVGEVMENRIAADAELPPGLWEDLKVAGLLRPDAPV", "soluble on expression in E. coli": "not soluble"}
{"sequence": "MRQWTAIHLAKLARKASRAVGKRGTDLPGQIARKVDTDVLRKLAEQVDDIVFISGTNGKTTTSNLIGHTLKANNIQIIHNNEGANMAAGITSAFIMQSTPKTKIAVIEIDEGSIPRVLKEVTPSMMVFTNFFRDQMDRFGEIDIMVNNIAETISNKGIKLLLNADDPFVSRLKIASDTIVYYGMKAHAHEFEQSTMNESRYCPNCGRLLQYDYIHYNQIGHYHCQCGFKREQAKYEISSFDVAPFLYLNINDEKYDMKIAGDFNAYNALAAYTVLRELGLNEQTIKNGFETYTSDNGRMQYFKKERKEAMINLAKNPAGMNASLSVGEQLEGEKVYVISLNDNAADGRDTSWIYDADFEKLSKQQIEAIIVTGTRAEELQLRLKLAEVEVPIIVERDIYKATAKTMDYKGFTVAIPNYTSLAPMLEQLNRSFEGGQS", "soluble on expression in E. coli": "not soluble"}
{"sequence": "MRRGLAWVGALLLLGGCVSSRPIDEIQIIQQMGYDFENGRYTGTAVYPTFKQGPMTKPNMLTTTSPTIYDLIPRLSSKSALPIEEGQLRLILFGKEFARRGVTQITHSLARNNKVGSHLLLGVAEESAKELLKITAKTTLSDTLYLPNLVEQNEQSMNLPKTNLHLFLYRYFSPGSDPFLPYFEKKGDFVKLEGVALFRDDQYVGHVSLRDSFLMKILLGETKNGVYQLKVGNRGKQGEDRVMLQNLWAKPKYAWKRDGSRHVLDVFIHIHASVRDYPSWLDQPGGDLFADVKKKMQNELEHNMRRLFRYFQKKRIDPLGIGDFVRSVTRHWDSDAFYREYPDLDIRPHVTVDIVHTGIGE", "soluble on expression in E. coli": "not soluble"}
